Assay [1] addresses T1, recombinant CD147 ECD-Flag construct (construct #3364, human CD147 ECD1-192) (human, UniProt Q865R3 22-192 (bovine entry)).
T1 sequence: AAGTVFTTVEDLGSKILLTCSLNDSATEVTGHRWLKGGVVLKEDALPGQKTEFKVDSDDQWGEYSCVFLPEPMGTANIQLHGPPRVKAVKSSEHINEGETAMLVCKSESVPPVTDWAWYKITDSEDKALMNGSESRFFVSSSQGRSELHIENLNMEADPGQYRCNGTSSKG
The experiment in a line: cell-based or functional assay.

Assay [2] has as its target T2, CD147-FL-ECD (Asp19-192 of SEQ ID NO: 1) (human, UniProt Q865R3 19-192 (bovine entry)).
T2 construct: The Asp19 N-terminus is stated for the hexa-His ECD-FL; also called ECD-FL; CD147 ECD
T2 sequence: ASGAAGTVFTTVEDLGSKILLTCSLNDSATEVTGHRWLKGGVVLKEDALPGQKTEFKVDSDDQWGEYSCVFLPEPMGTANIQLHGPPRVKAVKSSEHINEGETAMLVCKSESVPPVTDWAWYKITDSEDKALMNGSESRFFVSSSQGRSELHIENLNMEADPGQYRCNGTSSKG
As to the kind of experiment: SPR (Biacore 3000), mAb captured by anti-mouse Fc, CD147-FL-ECD injected. On the procedure: Affinity for the CD147 ECD was also measured by surface plasmon resonance (Biacore). Kinetic studies were performed at 25° C. using a BIACORE 3000 (BIAcore, Inc.) surface plasmon resonance (SPR) instrument. Goat anti-mouse Fcy specific antibody (Jackson Immunoresearch laboratories Prod #115-005-071) was covalently attached to carboxymethyl dextran coated gold surfaces (CM-5 Chip, Biacore). The carboxymethyl groups of dextran were activated with N-Ethyl-N′-(3-Dimethylaminopropyl)carbodiimide (EDC) and N-hydroxysuccinimide (NHS). The Ab was attached at pH 4.5 in 10 mM sodium acetate. Any remaining reactive sites on the surface were blocked by reaction with ethanolamine.
For kinetic binding measurements, anti-CD147 mAbs were captured using an anti-mouse Fcy specific antibody at a flow rate of 30 μL/min. Ab capture was followed by injection of CD147-FL-ECD or the N- or C-domain fragments (as described in Example 1) at concentrations between 75 and 300 nM at 60 μL/min. Association data was collected for 2 min followed by 10 min of dissociation. The surface was regenerated with 15 μL of 100 mM H3PO4, followed by 15 μL of 50 mM NaOH at 30 μL/min. All samples were prepared in D-PBS containing 3 mM EDTA and 0.005% surfactant P20. Data reported is the difference in SPR signal between the flow cell containing the captured antibody and a reference cell without captured antibody. Additional instrumental contributions to the signal were removed by subtraction of the data from the blank injection from the reference-subtracted signal. Data were analyzed by fitting association and dissociation phases at all concentrations using the BIAevaluation software (BIAcore, Inc.).
In general terms: SPR reads the build-up and loss of mass on a sensor chip optically.

Assay [3] has as its target T3, native human CD147 on MDA-MB-231 breast carcinoma cells (human, UniProt P35613 140-385).
T3 construct: also called EMMPRIN; MDA-MB-231 cells
T3 sequence: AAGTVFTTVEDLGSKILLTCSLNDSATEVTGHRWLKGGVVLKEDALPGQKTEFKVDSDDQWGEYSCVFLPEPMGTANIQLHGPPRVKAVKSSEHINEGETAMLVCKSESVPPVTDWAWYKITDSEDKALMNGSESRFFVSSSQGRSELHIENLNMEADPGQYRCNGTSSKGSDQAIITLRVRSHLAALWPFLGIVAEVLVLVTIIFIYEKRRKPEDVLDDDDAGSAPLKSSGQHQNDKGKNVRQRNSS
The experiment in a line: live cell binding assay on MDA-MB-231 cells, HRP-conjugated secondary antibody, OD 490, antibody at 10 ug/ml.

Positions count from the first letter of the chain named. Names may count otherwise.

We go through three molecules from patent US20140079711A1 (Janssen / Centocor, published 2014).

Broadly, the Kd is the equilibrium constant for the complex coming apart. A lower Kd goes with higher affinity.

B1: 2C8(mIgG1) (antibody, V domains shown)
VH: EMKLEESGGGLVQPGGSMKLSCVASGFTFSNYRMNWVRQSPEKGLEWVAQIRLKSYNYATHYAESVKGRFTISRDDSKSSVYLQMNNLRAEDTGIYYCTPDGSDYWGQGTTLTVSS
VL: DILMTQSPSSMSVSLGDTVSITCHASQGISSSIGWLQQKPGKSFKGLIYHGTNLEDGVPSRFTGSGSGADYSLTISSLESEDFADYYCVQYAQFPYTFGGGTKLEIK
notes: Murine IgG1 from hybridoma; also called C1170A; C1170
For the molecule B1, the “MMP-1 IC50” value in assay [1] is 20 µg/mL. The same molecule displayed a Kd in assay [2] of 5 nM.

B2: 5F6(mIgG1) (antibody, V domains shown)
VH: B1 VH with R33W
VL: SIVMTQTPKFLLVSAGDRVTITCKASQSVSNDVAWYQQKPGQSPKLLIYYASNRYTGVPDRFTGSGYGTDFTFTISTVQAEDLAVYFCQQDYSSPYTFGGGTKLEIK
notes: Murine IgG1 from hybridoma; Two light chain V-regions were found for 5F6; also called C1171A; 5F6 mAb
B2: the Kd in assay [2] worked out at 4 nM.

B3: 4A5(mIgG1) (antibody, V domains shown)
VH: EVQLQQSGPELVKPGASVKISCKASGYTFTDYYMNWVKQSHGKSLEWIGGINPNNGGTSYNQKFKGKATLTVDKSSSTAYMELRSLTSEDSAVYYCARNDGYRGYAMDYWGQGTSVTVSS
VL: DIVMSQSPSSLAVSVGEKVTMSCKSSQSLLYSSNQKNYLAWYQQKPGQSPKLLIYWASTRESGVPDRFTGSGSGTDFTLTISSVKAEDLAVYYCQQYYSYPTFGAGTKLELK
notes: Murine IgG1 from hybridoma; also called C1177A; 4A5 mAb
Regarding B3, in assay [2], the Kd amounted to 100 nM. In assay [3], the binding result is on record as “binds”.
